Biological target: E. coli topoisomerase I (ETOP) (Escherichia coli, UniProt P06612 1-865)
Experiment: fluorescence anisotropy; 0.5 mM MgCl2; no inhibitor (Kd fitted, value not in the text held); 50 mM Tris-HCl pH 7.5, 100 mM NaCl, 0.1 mM EDTA, 0.5 mM MgCl2; 10-30 nM oligonucleotide; temperature not stated
Conditions: label: 3' 6-carboxyfluorescein; hairpin, 16 bp stem

E. coli topoisomerase I (ETOP), sequence (P06612 whole entry): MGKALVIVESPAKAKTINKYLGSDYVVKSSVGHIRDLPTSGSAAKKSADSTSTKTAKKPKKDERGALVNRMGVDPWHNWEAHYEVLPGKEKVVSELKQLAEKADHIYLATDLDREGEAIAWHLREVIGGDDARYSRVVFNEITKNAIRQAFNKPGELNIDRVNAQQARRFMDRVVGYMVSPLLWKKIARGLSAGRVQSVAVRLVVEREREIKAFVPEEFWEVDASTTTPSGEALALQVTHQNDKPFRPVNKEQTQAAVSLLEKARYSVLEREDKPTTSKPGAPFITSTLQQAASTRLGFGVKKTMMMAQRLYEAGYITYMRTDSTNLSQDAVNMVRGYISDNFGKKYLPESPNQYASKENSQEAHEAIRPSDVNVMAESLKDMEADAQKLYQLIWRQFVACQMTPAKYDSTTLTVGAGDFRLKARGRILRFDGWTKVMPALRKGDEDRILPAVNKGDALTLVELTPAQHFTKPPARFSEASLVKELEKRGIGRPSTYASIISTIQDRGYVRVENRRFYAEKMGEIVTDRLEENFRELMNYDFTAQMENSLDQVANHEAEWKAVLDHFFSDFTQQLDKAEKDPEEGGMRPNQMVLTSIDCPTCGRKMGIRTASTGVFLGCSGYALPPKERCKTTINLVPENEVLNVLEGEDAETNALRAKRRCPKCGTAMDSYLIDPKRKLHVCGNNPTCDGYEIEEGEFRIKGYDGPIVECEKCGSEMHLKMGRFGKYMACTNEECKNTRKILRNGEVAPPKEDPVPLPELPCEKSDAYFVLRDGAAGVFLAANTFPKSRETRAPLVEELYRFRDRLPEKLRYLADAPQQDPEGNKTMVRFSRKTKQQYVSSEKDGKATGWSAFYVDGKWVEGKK

B1: 59-base stem-loop oligonucleotide (non-cleavable) (structured_DNA)
DNA: GCCCTGAAAGATTATGGAATGGGATTAGGGTAAAGGAAGAGAGCATAATCTTTCAGGGC
binding result: binds

Source: publication PMC4370478, “Inhibition of Zn(II) Binding Type IA Topoisomerases by Organomercury Compounds and Hg(II)”
